This note sets out measurements from paper doi:10.1101/2025.07.03.662971.

In test [1] the target is FITC labeled GKAP C-terminus peptide (CT12) (human). As to the kind of experiment: fluorescence polarisation. (Polarisation of emitted light reports the rotation of a fluorescent probe.)
Test [2] deals with 6xHis-tagged GH1 or CT43 protein (ligand of the Ni-NTA BLI) (rat) (UniProt P97836). As to the kind of experiment: BLI.
Test [3] addresses GST-tagged 12 amino acid mTOR peptide (human). As to the kind of experiment: BLI. In general terms: Biolayer interferometry detects binding as a change in optical thickness at a sensor tip.
The target in test [4] is GST-tagged 12 amino acid ARAP3 peptide (human). As to the kind of experiment: BLI.
Test [5] addresses GST-tagged 12 amino acid βPIX peptide (human). As to the kind of experiment: BLI.
Test [6] has as its target GST-tagged 12 amino acid ATG13 peptide (human). In words: BLI.

Chain of 6xHis-tagged GH1 or CT43 protein (ligand of the Ni-NTA BLI) (rat) (P97836 807-992): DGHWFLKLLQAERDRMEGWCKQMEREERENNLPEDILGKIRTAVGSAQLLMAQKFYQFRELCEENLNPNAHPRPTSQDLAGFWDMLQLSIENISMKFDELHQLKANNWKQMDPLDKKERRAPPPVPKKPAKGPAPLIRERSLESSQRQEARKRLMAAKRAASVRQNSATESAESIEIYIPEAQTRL

Broadly, the Kd is the concentration at which binding is half-saturated. A low value points to higher affinity. For “Shank1-PDZ V677M variant (domain or fragment)”, in test [1], the dissociation constant (Kd) is 16.9 µM.
In the case of “Shank1-PDZ R679W variant (domain or fragment)”, the values for the equilibrium dissociation constant (Kd) in test [2] and in test [1] were 14.5 µM and 325 µM, respectively.
“wild type Shank1-PDZ domain (domain or fragment)”: the Kd was 720 µM in test [3]; 35.8 µM in test [4]; 23.2 µM in test [5]; 39.1 µM in test [6]; 1.5 µM in test [2]; 4.59 µM in test [1].
Consider “Shank1-PDZ R743H variant (domain or fragment)”, for which, in test [1], the Kd worked out at 7.62 µM.
“Shank1-PDZ R736Q variant (domain or fragment)” came in with a Kd in test [1] of 2.55 µM.
As for “Shank1-PDZ G734S variant (domain or fragment)”, in test [1], the equilibrium dissociation constant (Kd) is 10.6 µM.
